Assay results as given in publication PMC11406251.

Legend:
[1] = target: HCMV gB ectodomain base construct (gB Base) (human cytomegalovirus, Towne strain) (UniProt P13201); experiment: SEC; Superose 6 Increase 10/300 GL; 2 mM Tris pH 8.0, 200 mM NaCl, 0.02% sodium azide; LMW peak ~14 mL (trimers), HMW peak ~12 mL (oligomers of trimers)
[2] = target: HCMV gB ectodomain base construct (gB Base) (human cytomegalovirus, Towne strain) (UniProt P13201); experiment: cryo-EM structure

HCMV gB ectodomain base construct (gB Base) (from UniProt P13201 23-704) (domain or fragment)
stoichiometry N [1]: 3
stoichiometry N [2]: 3
